Assay results as given in the DeepSol protein solubility set.

Test: soluble on expression in E. coli; label from the status in PepcDB or PDB records

Sequence | soluble on expression in E. coli
MMTRKKELAIALSKLKGFKNPKVWLEQYRTPGNAASELLWLAYSLGDIEGKVVADLGAGTGVLSYGALLLGAKEVICVEVDKEAVDVLIENLGEFKGKFKVFIGDVSEFNSRVDIVIMNPPFGSQRKHADRPFLLKAFEISDVVYSIHLAKPEVRRFIEKFSWEHGFVVTHRLTTKIEIPLQFFFHRKKLERITVDIYRFSKVINSR | soluble
MMWKQAMTDVAEKTLTNIKRFNGRFPHVSEDGEHYELNNNNEWTNGFWSGILWLCYEYTNDPAFRQAAASTVRSFQQRMEQNLELDHHDIGFLYSLSSKAQWIIERDERAKQLTIEAADVLMKRWREKIELFQAWGPEGDLSNGGRIIVDCLMNLPLLFWASEVTGNPDYREAAIIHADKTRRFIVRGDDSTYHTFYFNQETGEALRGGTHQGYEDGSTWSRGQAWAIYGFAIAYRYTGNERYLETAKRTAKYFIENLPADYVAYWDFNAPITPDTKRDSSASAIASCGILELLSHLQETDPDKAFFQQSVQKQMTSLVENYASEKDAQGLIKRGSYSVRIGHAPDDYVIWGDYFYTEALMRLEKLRNGYWYEGKLEHHHHHH | soluble
MNAAVVRRTQEALGKVIRRPPLTEKLLSKPPFRYLHDIITEVIRMTGFMKGLYTDAEMKSDNVKDKDAKISFLQKAIDVVVMVSGEPLLAKPARIVAGHEPERTNELLQIIGKCCLNKLSSDDAVRRVLAGEK | soluble
MNADAPLKSYSGHHSETHKSESKKKKDKKTFEEEDDVENVKRKPAESSDDEVVVVVVKKDQKGKRGKKSKKPKKKQESSDDSSDNSDSSESSDDDKKSKKKKKKSKKDSSDSSDSSDSSDSSDDGKKKKKKKSKKDSSDDSSDSSDSSDSSDSSDDDKKKKKKSKKSKNKGSSSDSSDSSDDSSDDEKPKKKKKKSKKPKKAPKSDEEVTIKIIKKPKKKPEDLERRRHRVKKTEEHEEEKDKEEHHESNDENMEFDTRARGAPSSPKLTRRAKRSESSDDEVELQKTPEIDDNKPSRKDGDHDSDMEESEKSKKSSKKDHNHHHHHCCCGAQNEHEHTHHEEFSKTDKVVNKYHDCAKCQYKCPICT | not soluble
MNADEWMTTFRENIAQTWQQPEHYDLYIPAITWHARFAYDKEKTDRYNERPWGGGFGLSRWDEKGNWHGLYAMAFKDSWNKWEPIAGYGWESTWRPLADENFHLGLGFTAGVTARDNWNYIPLPVLLPLASVGYGPVTFQMTYIPGTYNNGNVYFAWMRFQFL | soluble
MNALSGLQTHEDSTCCNRFCRPDERSASGNSTLLRFGGFFADQTYLQVTRLMQRIHYLHQRLVIDGFVRSEEDGGVFLAFGLEHHHHHH | not soluble
MNCMWCDSTEAKESLNTVYWELPDGTKAIEIQETPCISCSSCGMDYQSDHTVKEIEDQLFLIYTKDLPKQLTYEELMGRPRLLKRNYFDF | not soluble
MNCRLGCGACCIAPSISSVIPGMPNGKAAGERCVQLSDDNLCLIFGSPERPAVCCDFEASLDVCGHSNEEALWLITNLESQTSLEHHHHHH | not soluble
MNCWMRSPRWPPTTDGSNSSQWVTPCSQMDRSVFSPTPSVPMKLFSTRTLSGTGWAVCKPVGATGVVKGLQRVRLAGLRPAHREDIAIHELVFQRDDDGAIAVCTRRLRLVERLLAKRTDEHRHTGWMGVGHIHRWGAVNECSLAIRMRWLRAPDYVYNTPRCAQLLTSESTKPNGTHGHTMTTFLLATSSVHVTAAAADYLQHRLDSAADHDIVVVAVHDPDAPSRDAGDAVNVARSRLAAFMPATETRDGAPVTEILAAVDEHDPDELLIGPHRGTDDSDGVGSMARDLLTNVDRPVIVLPLP | not soluble
MNDLTLSPIAIIHTPYKEKFSVPRQPNLVEDGVGIVELLPPYNSPEAVRGLEQFSHLWLIFQMDQIQQGKWQPTVRPPRLGGNQRVGVFASRATHRPNPLGMSKVELRQVECINGNIFLHLGAVDLVDGTPIFDIKPYIAYADSEPNAQSSFAQEKLPVKMTVEFTEQAKSAVKKREEKRPHLSRFIRQVLEQDPRPAYQQGKPSDRIYGMSLYEFNVKWRIKAGTVNCVEVIEIEKDKLEHHHHHH | soluble
MNDMRQITNLGRNIENKSFSIIDEEAGPHSFAQEEWEVVRRIIHATADFDYKNITKIHPQAIDSGIQALKKGCPIVCDVQMILSGLNPERLKVYGCKTYCFISDEDVIENAKRKNSTRAIESIQKANSFNLLNESIIVIGNAPTALLEIEKLIRQEGIKPALIVGVPVGFVSAKESKESILKLEYYNVTSIPYILTMGRKGGSTIAVAILHALLLLSSKRGERLEHHHHHH | soluble
MNEHIESYHRILEEECLSINEFESFAEAYTIVNEFIKLYNTKRIHSSTKYMPPAEFYEHLRISGETVNMRL | not soluble
MNEIIGKFAREGILIEDNAYFRLREMDDPASVSSELIVKIKSNGGKFTVLTSEMLDEFFEIDNPAEIKARGPLMVPAERDFDFEVISDTSNRSYTSGEIGDMIAYFNSRYSSLKNLLSKRPELKGHIPIADLRGGEDVVSIIGMVNDVRNTKNNHRIIELEDDTGEISVVVHNENHKLFEKSEKIVRDEVVGVHGTKKGRFVVASEIFHPGVPRIQEKEMDFSVAFISDVHIGSQTFLEDAFMKFVKWINGDFGSEEQRSLAADVKYLVVAGDIVDGIGIYPGQEKELLIRDIHEQYEEAARLFGDIRSDIKIVMIPGNHDSSRIAEPQPAIPEEYAKSLYSIRNIEFLSNPSLVSLDGVRTLIYHGRSFDDMAMSVNGLSHERSDLIMEELLEKRHLAPIYGERTPLASEIEDHLVIDEVPHVLHTGHVHINAYKKYKGVHLINSGTFQSQTEFQKIYNIVPTCGQVPVLNRGVMKLLEFSLEHHHHHH | not soluble
MNEKKLVEALKRKEDWAYEVLYREFAPKIGSIAKSFLNTDDVDDVVQDVFLRIFKGIKKFRGDSKLSTWIYRIAVNVCKDYLQKYKKRNEFLTDFQEKDNEEEIYIQPEAKENVLDEVLRSITAERVQKALEKLSPEDRLLIKLRDIDGLSYEEIASVLQKPVGTVKSRLHYARKRLGNLLKEGETVER | not soluble
MNELTGADFKSATADDNKKLFIETYGCQMNVADSEVIASVMQMAGYSVAETLEEADAVFMNTCSIRDNAEQKILNRLEFFHSLKKKKKALIVGVLGCMAERVKDDLITNHHVDLVVGPDAYLTLPELIAAVEAGEKAINVDLSTTETYRDVIPSRICGNHISGFVSIMRGCNNFCTYCIVPYTRGRERSRDVESILNEVADLVAKGYKEVTLLGQNVNSYRFEKPTGEVVTFPMLLRMVAEAAPGVRIRFTTSHPKDMSDETLEVIAQVPNVCKHIHLPVQSGSSRILKLMNRKYTREWYLDRVAAIKRIIPDCGLTTDIFSGFHSETEEDHQLSLSLMEECGYDAAFMFKYSERPGTYASKHLEDNVPEDVKVRRLNEIIALQNRLSAESNQRCIGKTYEVLVEGVSKRSRDQLFGRTEQNRVVVFDRGTHRIGDFVNVRVTEASSATLKGEEVLEHHHHHH | soluble
MNFIVIGAGNIGSGIAQNLLEDGHEVEIADKSRESLNRIRGRNPKIRTREFDVMDRSAYRMLNDYDASVSALPGSIGMQFLKNVAKMGKIVVDVSYMEEDPYDLNGIAQSAGTIIVPDMGFAPGLTNAIVGYFSADLDQIRNVKIYVGGIPEKPVPPLDYTITWSVEGLIDEYTRPVRIVRNGTEDHVPALSGIERIGVGNYADMEAFYTDGLRSLIRNIKCTGEMFEKTIRYPGHAEKMAAIRDLGYFDRIKVDGCNLTMFEISEQIFMEKLFRPDIQDVVLMKVEVSGTKLGREVTRTAEMQTGYDSSRKRTAMDMATSLPASITAEFLSSNGKITSGIVFPEILGKTQNYFEYLVNNMKKKGINVNISVK | not soluble
MNFKPIKPKKISTQIAEQIRSSILAGEFTPGEKLPPERELAEMFGVSRPSVREALNILAAAGLVESYQGGGTIVKSLMDAASGPPLSEIIKVEQERALDVIEVRKCMEAWTAYYAAQRALPDDVRKLEGIVWNMEANLNGLKPSEDLDANFHIVIARSTHNVVWLHLMQTIFEAMKEFQRSVWRAVYLTEEDHRTLFAHHKAIFEAIRDKDCERARNAMLGHLTFAEKRSSIYVNQSRQDR | not soluble
MNGEEIIRFERVTKEYDGTVVLDDVSFAMERGKFYTLLGPSGCGKTTILRLIAGFIEPTEGTIYFHGKPIQNVPPNKRQVNTVFQDYALFPHLDVFENVAFGLRVKKMKEADIRQKVSEALRFVNLEGYERRRIQEMSGGQRQRVAIARAIVNEPEVLLLDEPLSALDLKLRTEMQYELRELQRRLGITFIFVTHDQEEALAMSDYIFVLNKGKIQQFGTPKDIYDEPINRFVADFIGESNILSGRMIDDFLVEFAGKQFACVDRGFAPNEPVDVVIRPEDLELAAPEDGQIVIRVDSLLFRGVHYEICGYDENGNEWLVHSTKKAEVGETVGLRFEPEAIHVMRVEREDEGA | soluble
MNGGKETIDDMSLVVGMYGNYEVTKTGNLVGILEVSGINLDLLNETEQQDVFEDYGAFLMSTLGEGVDDTLQFLEPTIPVNMTTYLNGLKRRYLALQKDHPEQQFKIQLIASYLDHFTKVQESKNMTTKQHLLIVKVPIKDKSAESLNLAVAHLDEKIEQVKRDIENALTDFDVTAKILTSQEVQEILKNLINFNGLEHHHHHH | soluble
MNGGSSIKVLGLVGSPKVDGNTAKMVDAILEGAAENGAETVIYNLASLDIKGCDACHRCQETGCCAIDDDMQELYRQIEEADAVVLGSPVYMWQMTAQTKLLIDRMTAFLKPNFSSRLDHKKLILVFTQGIPDRDAFNSYFEYTAGVLYYLGFDVLETIVAAGTDNLEVAFRPRLLEKSRELGKLISASNPVSPRYRRALEHHHHHH | not soluble
MNGIIVDKEKVHPGMPDVVKDAKIALLDAPLEIKKPEFDTNLRIEDPSMIQKFLAQEENMLREMVDKIKSVGANVVITQKGIDDMAQHYLSRAGIYAVRRVKKSDMDKLAKATGASIVSTIDEISSSDLGTAERVEQVKVGEDYMTFVTGSKNHHHHHH | soluble
MNGVYDVGGTDGLGPINRPADEPVFRAEWEKVAFAMFPATFRAGFMGLDEFRFGIEQMNPAEYLESPYYWHWIRTYIHHGVRTGKIDLEELERRTQYYRENPDAPLPEHEQKPELIEFVNQAVYGGLPASREVDRPPKFKEGDVVRFSTASPKGHARRARYVRGKTGTVVKHHGAYIYPDTAGNGLGECPEHLYTVRFTAQELWGPEGDPNSSVYYDCWEPYIELVDT | soluble
MNHKVHHHHHHIEGRHMDEYKQVDVGKDGMVATAHPLASEIGADVLKKGGNAIDAAVAIQFALNVTEPMMSGIGGGGFMMVYDGKTKDTTIIDSRERAPAGATPDMFLDENGKAIPFSERVTKGTAVGVPGTLKGLEEALDKWGTRSMKQLITPSIKLAEKGFPIDSVLAEAISDYQEKLSRTAAKDVFLPNGEPLKEGDTLIQKDLAKTFKLIRSKGTDAFYKGKFAKTLSDTVQDFGGSMTEKDLENYDITIDEPIWGDYQGYQIATTPPPSSGGIFLLQMLKILDHFNLSQYDVRSWEKYQLLAETMHLSYADRASYAGDPEFVNVPLKGLLHPDYIKERQQLINLDQVNKKPKAGDPWKYQEGSANYKQVEQPKDKVEGQ | soluble
MNHTLQFPKAPEHLLQALNEVIPKCKLMAQQLPETAISLWLIPPVFPTERLDDDIIRRIWSDTPYWIFCWASGLAMAQWLLAEPHHVKDKVVLDFGAGSGVVAIAAKMAGAKRVICCDIDETSLNACRENALLNNVELEYLNDLYLSESVDILLAADVLYDQSNRFFLDEFLKFAPEVWVADSRVKNFSHPGYIKIDERSATTWPDLDEAKEFRNVSFYKTLEHHHHHH | not soluble
